Consider two molecules from patent publication US20260199504A1 (JIANGSU HENGRUI PHARMACEUTICALS, published 2026).

Experiment [1] has as its target T1, Nectin-4 expressed on T47D and MDA-MB-468 human breast cancer cells (human, UniProt Q96NY8 32-510).
T1 construct: whole, on cells; Nectin-4 native to the cell lines; also called Nectin-4-expressing cells
T1 sequence (looked up): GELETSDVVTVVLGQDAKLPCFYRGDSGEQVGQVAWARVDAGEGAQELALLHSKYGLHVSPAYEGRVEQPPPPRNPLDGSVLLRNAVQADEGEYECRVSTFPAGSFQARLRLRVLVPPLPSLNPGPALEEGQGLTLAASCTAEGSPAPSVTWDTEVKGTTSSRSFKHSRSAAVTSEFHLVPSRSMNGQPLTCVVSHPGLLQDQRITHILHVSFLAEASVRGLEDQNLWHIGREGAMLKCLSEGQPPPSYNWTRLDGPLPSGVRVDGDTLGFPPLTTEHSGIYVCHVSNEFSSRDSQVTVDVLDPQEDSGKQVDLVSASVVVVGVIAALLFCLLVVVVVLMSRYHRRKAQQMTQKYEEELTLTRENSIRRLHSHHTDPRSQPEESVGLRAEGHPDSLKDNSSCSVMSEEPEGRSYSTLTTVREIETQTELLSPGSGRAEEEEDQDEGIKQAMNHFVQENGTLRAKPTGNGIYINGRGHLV
Briefly: flow cytometry on MDA-MB-468 cells. The method, then: (§1) After centrifugation and removal of the supernatant, the test antibody that was diluted with the FACS buffer to different concentrations was added at 50 μL/well. The plate was incubated in the dark in a 4° C. refrigerator for 1 h. The plate was washed 3 times with FACS buffer by centrifugation at 500 g, and Alexa Fluor 488 Goat anti-Human IgG (H+L) (invitrogen, A-11013) was then added in a working concentration. The plate was incubated in the dark in a 4° C. refrigerator for 40 min. The plate was washed 3 times with FACS buffer by centrifugation at 500 g and tested on a BD FACSCantoII flow cytometer for geometric mean fluorescence intensity, and the EC₅₀ values for the binding of the antibodies to Nectin-4-expressing cells were calculated.
(Flow cytometry measures light scatter and fluorescence of single cells or particles in a stream.)

The target of experiment [2] is T2, human Nectin-4 on Nectin4-CHOK1 cells (CHO-K1 cell strain highly expressing Nectin-4) (human, UniProt Q96NY8 32-510).
T2 sequence: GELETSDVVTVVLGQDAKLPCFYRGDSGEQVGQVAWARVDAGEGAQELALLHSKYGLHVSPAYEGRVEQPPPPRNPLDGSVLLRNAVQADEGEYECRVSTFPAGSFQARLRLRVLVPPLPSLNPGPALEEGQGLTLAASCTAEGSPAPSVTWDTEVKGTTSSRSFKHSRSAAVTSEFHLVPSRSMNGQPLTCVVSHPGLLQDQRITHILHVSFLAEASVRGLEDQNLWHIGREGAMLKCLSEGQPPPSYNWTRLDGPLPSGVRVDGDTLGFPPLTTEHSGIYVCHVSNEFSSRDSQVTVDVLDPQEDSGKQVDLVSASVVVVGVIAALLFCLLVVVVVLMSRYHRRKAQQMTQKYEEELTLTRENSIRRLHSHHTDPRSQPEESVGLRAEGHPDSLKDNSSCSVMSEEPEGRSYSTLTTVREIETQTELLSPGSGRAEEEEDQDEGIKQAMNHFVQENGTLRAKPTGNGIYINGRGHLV
Put plainly: cell-based or functional assay.

The target of experiment [3] is T2, human Nectin-4 on Nectin4-CHOK1 cells …. Put plainly: flow cytometry on Nectin4-CHOK1 cells. The method, then:
as §1

Experiment [4] deals with T3, human Nectin-4 His (Cat. #19771-H08H, Sino Biological) (human, UniProt Q96NY8 32-349).
T3 construct: Bought soluble antigen; the construct is probably only a part of it; also called human Nectin-4 His antigen; not shown: His tag
T3 sequence: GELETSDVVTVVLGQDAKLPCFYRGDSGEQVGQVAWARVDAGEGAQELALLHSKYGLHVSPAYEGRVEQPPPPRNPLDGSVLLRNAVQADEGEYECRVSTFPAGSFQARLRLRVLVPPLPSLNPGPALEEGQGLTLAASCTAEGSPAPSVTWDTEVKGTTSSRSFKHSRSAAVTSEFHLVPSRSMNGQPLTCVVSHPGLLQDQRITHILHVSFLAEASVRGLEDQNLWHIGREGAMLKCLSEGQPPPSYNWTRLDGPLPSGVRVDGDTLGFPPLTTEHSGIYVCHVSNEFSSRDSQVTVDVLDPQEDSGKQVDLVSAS
Put plainly: SPR, Biacore T200; antibody captured on Protein A chip, human Nectin-4 His as analyte; 1:1 Langmuir model. On the procedure:
The anti-Nectin-4 antibody was analyzed by Biacore T200 (GE) for characteristic affinity and binding kinetics. A Protein A biosensor chip (Cat. #29127556, GE) was used to affinity-capture IgG antibodies, and then the human Nectin-4 His (Cat. #19771-H08H, Sino Biological) antigen that was diluted with HBS-EP buffer (pH 7.4) (Cat. #BR-1001-88, GE) to a series of concentrations was allowed to flow over the surface of the chip. The antigen-antibody binding kinetics was tracked for 3 min and the dissociation kinetics was tracked for 10 min. Reaction signals were detected in real time using a Biacore T200 instrument to obtain binding and dissociation curves. After dissociation was complete in each cycle, the biosensor chip was washed with 10 mM Gly-HCl pH 1.5 (Cat. #BR-1003-54, GE) for regeneration. The data obtained were analyzed with BIAevaluation software of GE using a 1:1 (Langmuir) binding model.

The target of experiment [5] is T1, Nectin-4 expressed on T47D and …. Briefly: flow cytometry on T47D cells. On the procedure:
as §1

B1: NEC49 (fully human-derived anti-Nectin-4 antibody) (antibody, V domains shown)
VH: EVQLLESGGGLVQPGGSLRLSCAASGFTFSSYAMSWVRQAPGKGLEWVSAIYSGGSTYYADSVKGRFTISRDNSKNTLYLQMNSLRAEDTAVYYCTRHGGDSGSWSYYYYGMDVWGQGTTVTVSS
VL: not shown
notes: also called antibody NEC49
Take B1: the concentration for a half-maximal effect (EC50) (in general, the midpoint of the concentration-response curve) in experiment [1] turned out to be 60 pM; in experiment [3], 780 pM; in experiment [5], 70 pM. The “IC50 (nM) (DT3C antibody endocytosis assay, Nectin4-CHOK1 cells)” value in experiment [2] worked out at 0.43 nM. The equilibrium dissociation constant (Kd) (commonly the free concentration of one partner at which half of the binding sites on the other are occupied at equilibrium, for simple one-to-one binding) in experiment [4] was found to be 5150 pM. For the same molecule, the off-rate constant (koff) (usually the rate constant with which the complex falls apart) in experiment [4] is 0.00189 s⁻¹. The on-rate constant (kon) (in general, the rate constant with which the complex forms) in experiment [4] turned out to be 367000 M⁻¹ s⁻¹.

B2: EV201 (positive control antibody; antibody of enfortumab vedotin) (antibody, human IgG1, kappa, V domains shown)
VH: EVQLVESGGGLVQPGGSLRLSCAASGFTFSSYNMNWVRQAPGKGLEWVSYISSSSSTIYYADSVKGRFTISRDNAKNSLSLQMNSLRDEDTAVYYCARAYYYGMDVWGQGTTVTVSS
VL: DIQMTQSPSSVSASVGDRVTITCRASQGISGWLAWYQQKPGKAPKFLIYAASTLQSGVPSRFSGSGSGTDFTLTISSLQPEDFATYYCQQANSFPPTFGGGTKVEIKR
notes: also called control antibody EV201; control molecule
For B2, the EC50 in experiment [1] was 230 pM. Besides, the “IC50 (nM) (DT3C antibody endocytosis assay, Nectin4-CHOK1 cells)” value in experiment [2] was 0.5 nM. The same molecule gave a concentration giving a half-maximal response (EC50) in experiment [3] of 940 pM. In experiment [4], this molecule registered an equilibrium dissociation constant (Kd) of 9330 pM, a koff of 0.00661 s⁻¹ and a kon of 709000 M⁻¹ s⁻¹. Also, the response in experiment [5] was half-maximal at 260 pM (EC50).
